Data reported in the supplement of paper PMC10567573.
± gives the standard deviation.

Assay: protein stability index of a GFP-peptide fusion (GPS, HEK-293T) (PSI 1-6); higher = more stable
Settings: c terminus: a fixed tail appended
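Note: 24-mer peptide tiles fused after GFP, lentivirally expressed, FACS-sorted into six equal bins by GFP/DsRed ratio, decoded by Illumina sequencing, PSI is the read-weighted mean bin number.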

Sequence	protein stability index (treatment: DMSO)	protein stability index (treatment: MLN4924 1 uM, 8 h)
YQPEPFACGIEHCSVHYVSDSGDG [FBXO34]	2.93 ± 0.27	3.04 ± 0.26
ERVEAFSDGVYAIVATLLILDICE [TMEM175]	3.05 ± 0.15	3.15 ± 0.22
VSFVIHNLPIIAKMAAVSKASGRF [SEPHS2]	3.08 ± 0.29	2.75 ± 0.61
LDGQLDFEEFVHYLQDHEKKLRLV [SLC25A25]	3.3 ± 0.68	2.98 ± 0.33
GLGGGSSRTSCRLSGGLGAGSCRL [KRT17]	2.41 ± 0.13	2.35 ± 0.41
LSILRHQNLLKELQDLALQGAKER [CHGA]	3.02 ± 0.087	3.08 ± 0.27
VAVNGESVETLDHDSVVEMIRKGG [PDZK1]	4.61 ± 0.27	4.59 ± 0.24
LASLPLKADTKGFCNISLFEDLPL [PLAGL1]	2.33 ± 0.19	2.43 ± 0.1
NPQALSPQFTGILQLLQSRTSRKF [INTS3]	2.93 ± 0.22	2.98 ± 0.35
SSITRQKKRLQELALALKKCKPSL [TMEM120A]	2.39 ± 0.41	2.81 ± 0.39
MRDLYMKNGQGFALVYSITAQSTF [RAP1B]	2.85 ± 0.79	2.78 ± 0.6
NMERIMKAQALRDNSTMGYMMAKK [HSP90AB1]	3.38 ± 0.19	
QTFLDERTPRLMPDKESMYYPRVQ [GDAP1]	3.43 ± 0.32	3.41 ± 0.31
YDSFDSEDYPAALPNHKPKGTFKD [ETS1]	5.05 ± 0.17	4.83 ± 0.22
TSVNLGILTADLYSLFVGLFLFGY [SLC35F2]	2.93 ± 0.26	3.12 ± 0.2
ILFLPCLRKKILKIRHGWEDVTKI [STEAP1]	2.95 ± 0.39	2.46 ± 0.42
LAPAGQTSEESRPRLSQLSVTDVT [TNXB]	4.64 ± 0.68	5.13 ± 0.31
QQKQQIMAALNSQTAVQFQQYAAQ [ACBD3]	3.21 ± 0.17	3.27 ± 0.16
LILELVSGGELFDFLAEKESLTED [DAPK3]	1.94 ± 0.18	2.49 ± 0.43
TACLTDRGIIMTFGSGSNGCLGHG [NEK8]	2.23 ± 0.2	2.28 ± 0.32
YDLWASDNPLDRPLVGQDEFFLEQ [NOP53]	4.31 ± 0.13	3.69 ± 0.43
VSMETYHVTLTLPPTQLEVNLEEI [C2CD2L]	2.34 ± 0.35	2.27 ± 0.31

Sequence	protein stability index (treatment: DMSO)	protein stability index (treatment: MLN4924 1 uM, 8 h)
PADPTGNLGGGDPKGWRQLAQEAE [OAS1]	5.17 ± 0.19	4.97 ± 0.18
EDTHQSPEPEDEPGGPGAMTESLE [RSPH3]	5.43 ± 0.38	5.64 ± 0.14
KSQDLAKIMADIRAQYDELARKNR [KRT18]	3.05 ± 0.41	3.29 ± 0.65
TPRRVFANAHTYHINSISVNSDYE [PPP2R2B]	3.35 ± 0.34	3.12 ± 0.42
GSTAITPGTPPSYSSRTPGTPGTP [MAP2]	4.87 ± 0.2	4.98 ± 0.11
TGVPGSPGHIGPPGPTGPKGISGH [EMID1]	4.33 ± 0.3	4.71 ± 0.27
EMRISESAASGARFPLDSAQDPDV [PCDHGC5]	5.38 ± 0.21	5.35 ± 0.16
AKVKGEKLDKKLKKMEQNKTAATR [ATF4]	4.88 ± 0.39	4.85 ± 0.16
TILLSYGVILHSLKTQSLEGKRKA [OR4A15]	2.5 ± 0.082	2.41 ± 0.55
TPLHVAAFLGDAEIIELLILSGAR [ANKRD44]	2.57 ± 0.7	2.52 ± 0.22
ELIDNLKEAQYIRTELVEQAFRAI [PCMTD2]	2.54 ± 0.32	2.29 ± 0.44
KLVVHDCPVWDIFDSDWYTSRNLI [RHOBTB3]	2.62 ± 0.43	2.66 ± 0.18
AAPAAKTRKQAAKKVAPLMAKAIR [ELOA2]	3.78 ± 0.24	4.16 ± 0.21
EVPQLPPRASISHVTCVDQSEHTM [C2CD2L]	4.66 ± 0.15	4.7 ± 0.25
TGWFGGGFTSYLGFGDEDTGLELI [MIA2]	2.07 ± 0.35	
FQEWEAHRNLSQLPNFAFSVPLAY [TCF25]	2.73 ± 0.58	2.4 ± 0.25
ELKEKEATLCLEFLLQNDANPSIR [ANKRD44]	3.19 ± 0.096	3.25 ± 0.31
GAAQEALSIQLQPKETQPFPKSEQ [ZNF232]	5.17 ± 0.25	5.22 ± 0.23
DPELKNLFDMCGISEAQLKDRETS [WASL]	4.72 ± 0.063	4.68 ± 0.21
GQGAMFRLPTDSHFPYDLHLRSQS [NEUROD6]	3.02 ± 0.3	3.11 ± 0.22
GIVVESNHDSHMAKERAHSTASHS [PDZK1]		4.44 ± 0.21
VSLHQASLGGCSQDFLLFSPEVES [NFE2L1]	2.06 ± 0.12	2.971 ± 0.02

Sequence	protein stability index (treatment: DMSO)	protein stability index (treatment: MLN4924 1 uM, 8 h)
SLSSIATCVYIAEIAPQHRRGLLV [SLC2A12]	2.6 ± 0.81	2.6 ± 0.52
PPTTPQNEEIRAVGRLKRERSMSE [MFF]	4.82 ± 0.28	5.05 ± 0.14
FPVAEQDKLLKHMIIEHKIVIADV [ZNF277]	2.25 ± 0.18	2.4 ± 0.34
QRDSKRWSRLEEFDVFSPKQDLVP [DLC1]	3.63 ± 0.13	3.8 ± 0.21
PVTKPLFPSAGQAQAAVQGPVGTD [ZNF207]	5.15 ± 0.17	5.05 ± 0.11
LSLLGKLTISAAFNIVYIYTSELY [SLC22A15]	3.31 ± 0.21	3.25 ± 0.28
TAPLYKDEKEQLIIPQVPLFNILA [USP39]	2.15 ± 0.13	2.09 ± 0.39
DPKKLLTQYFVQENYLEYRQVPGS [MAGEA6]	3.12 ± 0.1	3 ± 0.39
MAGLSKEPNTLRAPRVRTAFTMEQ [VENTX]	3.54 ± 0.28	3.75 ± 0.22
EVEGVKNIMTQNVERILARGENLE [VAMP8]	4.68 ± 0.15	4.46 ± 0.16
MEEMEEELKCPVCGSFYREPIILP [TRIM9]	4.05 ± 0.35	4.38 ± 0.28
ILTADLYSLFVGLFLFGYKFSGLY [SLC35F2]	2.45 ± 0.49	3.27 ± 0.19
CPRPCRESAFKLSTGTSRWPSAKS [SCNN1D]	2.7 ± 0.62	2.65 ± 0.45
QGQAAAPASGSGADSEPARHIFSF [TRIM55]	3.76 ± 0.27	3.79 ± 0.3
FKDEWTQLDMFYRNWALKESFIKA [AASDHPPT]	2.02 ± 0.16	2.22 ± 0.14
DHKPKLCRLAKGENGYGFHLNAIR [PDZK1]	2.25 ± 0.24	2.36 ± 0.56
RGEVLPEEITEESLEESVGKPLYL [INTS3]	5.17 ± 0.38	5.08 ± 0.35
SNPGVDFGDVSERLALRQRLKCRS [GALNT9]	4.43 ± 0.1	4.56 ± 0.17
GEKPYLSPDILEEKHCEFKQLALD [ATL3]	4.42 ± 0.25	4.92 ± 0.12
RLRHYLGSRYDARRGVSDWDLRMK [DNAAF3]	2.19 ± 0.21	2.33 ± 0.33
LFLFGYKFSGLYILSFTVIMVGFI [SLC35F2]	3.64 ± 0.12	3.18 ± 0.41
